Data as given in IntAct's records for PubMed 35512704.

B1: Mothers against decapentaplegic homolog 4 (Homo sapiens), Q13485 (parent)
chain: MDNMSITNTPTSNDACLSIVHSLMCHRQGGESETFAKRAIESLVKKLKEKKDELDSLITAITTNGAHPSKCVTIQRTLDGRLQVAGRKGFPHVIYARLWRWPDLHKNELKHVKYCQYAFDLKCDSVCVNPYHYERVVSPGIDLSGLTLQSNAPSSMMVKDEYVHDFEGQPSLSTEGHSIQTIQHPPSNRASTETYSTPALLAPSESNATSTANFPNIPVASTSQPASILGGSHSEGLLQIASGPQPGQQQNGFTGQPATYHHNSTTTWTGSRTAPYTPNLPHHQNGHLQHHPPMPPHPGHYWPVHNELAFQPPISNHPAPEYWCSIAYFEMDVQVGETFKVPSSCPIVTVDGYVDPSGGDRFCLGQLSNVHRTEAIERARLHIGKGVQLECKGEGDVWVRCLSDHAVFVQSYYLDREAGRAPGDAVHKIYPSAYIKVFDLRQCHRQMQQQAATAQAAAAAQAAAVAGNIPGPGSVGGIAPAISLSAAAGIGVDDLRRLCILRMSFVKGWGPDYPRQSIKETPCWIEIHLHRALQLLDEVLHTMPIADPQPLD
partner: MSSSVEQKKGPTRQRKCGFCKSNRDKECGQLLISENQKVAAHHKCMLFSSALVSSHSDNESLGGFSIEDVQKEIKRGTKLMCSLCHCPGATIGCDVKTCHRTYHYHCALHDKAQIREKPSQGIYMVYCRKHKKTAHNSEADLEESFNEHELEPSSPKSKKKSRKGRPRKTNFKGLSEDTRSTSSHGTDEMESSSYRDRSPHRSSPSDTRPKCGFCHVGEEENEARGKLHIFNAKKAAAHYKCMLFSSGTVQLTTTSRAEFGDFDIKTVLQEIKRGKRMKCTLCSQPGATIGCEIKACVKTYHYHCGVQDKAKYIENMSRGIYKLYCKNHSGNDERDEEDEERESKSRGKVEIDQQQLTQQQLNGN
B2: Mothers against decapentaplegic homolog 4 (Homo sapiens), Q13485 (parent)
chain: B1 chain
partner: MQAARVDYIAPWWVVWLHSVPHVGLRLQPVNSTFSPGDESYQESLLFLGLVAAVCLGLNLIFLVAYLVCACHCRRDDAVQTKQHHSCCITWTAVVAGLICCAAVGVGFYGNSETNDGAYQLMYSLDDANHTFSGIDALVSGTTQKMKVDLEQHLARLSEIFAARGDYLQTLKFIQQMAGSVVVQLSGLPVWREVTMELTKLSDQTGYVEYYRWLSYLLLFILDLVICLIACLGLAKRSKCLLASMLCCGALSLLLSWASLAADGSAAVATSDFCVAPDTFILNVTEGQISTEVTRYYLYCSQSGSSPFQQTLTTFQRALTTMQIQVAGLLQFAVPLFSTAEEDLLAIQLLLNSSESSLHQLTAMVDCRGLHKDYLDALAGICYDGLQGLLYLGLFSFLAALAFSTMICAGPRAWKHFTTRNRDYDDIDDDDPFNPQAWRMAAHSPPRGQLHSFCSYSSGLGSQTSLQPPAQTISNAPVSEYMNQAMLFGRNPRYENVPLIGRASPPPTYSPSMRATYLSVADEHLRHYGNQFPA
B3: Mothers against decapentaplegic homolog 4 (Homo sapiens), Q13485 (parent)
chain: B1 chain
partner: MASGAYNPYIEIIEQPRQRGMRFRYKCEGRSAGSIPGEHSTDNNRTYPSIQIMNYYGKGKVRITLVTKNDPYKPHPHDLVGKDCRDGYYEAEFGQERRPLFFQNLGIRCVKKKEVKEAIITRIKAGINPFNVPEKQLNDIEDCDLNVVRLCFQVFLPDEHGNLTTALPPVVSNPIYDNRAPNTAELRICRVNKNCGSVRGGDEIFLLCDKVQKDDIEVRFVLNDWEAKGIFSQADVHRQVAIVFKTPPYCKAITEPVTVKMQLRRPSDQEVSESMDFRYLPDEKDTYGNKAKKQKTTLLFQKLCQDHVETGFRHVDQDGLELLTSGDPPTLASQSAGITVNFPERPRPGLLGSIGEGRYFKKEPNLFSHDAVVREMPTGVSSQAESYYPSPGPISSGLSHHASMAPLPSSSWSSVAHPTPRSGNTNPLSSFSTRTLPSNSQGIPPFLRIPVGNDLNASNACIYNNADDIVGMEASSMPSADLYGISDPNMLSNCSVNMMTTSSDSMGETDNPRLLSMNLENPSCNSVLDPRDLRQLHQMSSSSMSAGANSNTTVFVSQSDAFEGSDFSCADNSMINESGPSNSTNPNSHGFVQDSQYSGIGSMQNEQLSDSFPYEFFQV
B4: Mothers against decapentaplegic homolog 4 (Homo sapiens), Q13485 (parent)
chain: B1 chain
partner: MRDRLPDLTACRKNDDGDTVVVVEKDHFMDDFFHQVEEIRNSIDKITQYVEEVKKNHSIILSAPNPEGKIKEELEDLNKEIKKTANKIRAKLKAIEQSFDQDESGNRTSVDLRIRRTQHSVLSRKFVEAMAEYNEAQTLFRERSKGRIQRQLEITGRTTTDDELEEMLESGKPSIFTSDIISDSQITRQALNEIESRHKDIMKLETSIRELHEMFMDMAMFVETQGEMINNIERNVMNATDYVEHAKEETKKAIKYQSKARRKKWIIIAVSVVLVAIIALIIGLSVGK
B5: Mothers against decapentaplegic homolog 4 (Homo sapiens), Q13485 (parent)
chain: B1 chain
partner: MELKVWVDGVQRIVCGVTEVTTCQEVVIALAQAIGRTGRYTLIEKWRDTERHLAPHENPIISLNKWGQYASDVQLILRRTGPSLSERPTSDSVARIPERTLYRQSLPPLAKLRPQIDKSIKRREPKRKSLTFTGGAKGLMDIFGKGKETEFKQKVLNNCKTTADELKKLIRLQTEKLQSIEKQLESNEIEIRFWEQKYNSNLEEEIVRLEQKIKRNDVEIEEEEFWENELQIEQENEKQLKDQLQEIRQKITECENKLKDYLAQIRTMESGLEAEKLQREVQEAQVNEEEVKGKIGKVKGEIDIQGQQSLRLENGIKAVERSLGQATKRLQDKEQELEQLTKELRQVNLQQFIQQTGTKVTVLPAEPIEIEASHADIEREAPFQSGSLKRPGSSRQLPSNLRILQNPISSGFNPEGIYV
B6: Mothers against decapentaplegic homolog 4 (Homo sapiens), Q13485 (parent)
chain: B1 chain
partner: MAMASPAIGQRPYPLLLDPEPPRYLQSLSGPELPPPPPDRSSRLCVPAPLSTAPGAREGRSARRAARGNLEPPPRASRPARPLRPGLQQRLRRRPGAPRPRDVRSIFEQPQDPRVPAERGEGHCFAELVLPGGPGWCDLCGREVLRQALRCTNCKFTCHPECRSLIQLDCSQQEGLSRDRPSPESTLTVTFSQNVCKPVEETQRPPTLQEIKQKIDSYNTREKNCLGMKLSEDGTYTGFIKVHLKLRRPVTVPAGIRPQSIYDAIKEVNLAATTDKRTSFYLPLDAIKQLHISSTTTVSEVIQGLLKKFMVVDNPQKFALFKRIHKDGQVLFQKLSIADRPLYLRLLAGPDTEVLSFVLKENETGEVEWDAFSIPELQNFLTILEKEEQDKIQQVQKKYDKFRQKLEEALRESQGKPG
B7: Mothers against decapentaplegic homolog 4 (Homo sapiens), Q13485 (parent)
chain: B1 chain
partner: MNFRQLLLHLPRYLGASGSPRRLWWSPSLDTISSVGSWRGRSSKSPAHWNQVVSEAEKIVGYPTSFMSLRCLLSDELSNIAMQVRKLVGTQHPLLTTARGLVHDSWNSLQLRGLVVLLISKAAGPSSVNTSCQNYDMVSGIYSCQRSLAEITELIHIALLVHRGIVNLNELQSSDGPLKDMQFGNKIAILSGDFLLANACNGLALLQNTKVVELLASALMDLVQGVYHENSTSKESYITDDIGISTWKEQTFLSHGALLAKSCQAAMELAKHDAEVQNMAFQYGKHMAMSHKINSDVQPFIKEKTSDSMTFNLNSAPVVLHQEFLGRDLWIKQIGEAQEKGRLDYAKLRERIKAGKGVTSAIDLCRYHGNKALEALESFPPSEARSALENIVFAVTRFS
B8: Mothers against decapentaplegic homolog 4 (Homo sapiens), Q13485 (parent)
chain: B1 chain
partner: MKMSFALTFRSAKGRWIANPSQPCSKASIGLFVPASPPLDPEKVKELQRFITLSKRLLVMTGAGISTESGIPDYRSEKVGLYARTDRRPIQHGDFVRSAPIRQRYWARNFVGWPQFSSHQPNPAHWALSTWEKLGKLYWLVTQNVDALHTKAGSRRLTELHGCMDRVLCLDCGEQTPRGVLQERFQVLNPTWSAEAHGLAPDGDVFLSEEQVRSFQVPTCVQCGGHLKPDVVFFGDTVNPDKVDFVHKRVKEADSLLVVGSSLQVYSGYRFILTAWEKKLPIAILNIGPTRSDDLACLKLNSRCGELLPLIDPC
B9: Mothers against decapentaplegic homolog 4 (Homo sapiens), Q13485 (parent)
chain: B1 chain
partner: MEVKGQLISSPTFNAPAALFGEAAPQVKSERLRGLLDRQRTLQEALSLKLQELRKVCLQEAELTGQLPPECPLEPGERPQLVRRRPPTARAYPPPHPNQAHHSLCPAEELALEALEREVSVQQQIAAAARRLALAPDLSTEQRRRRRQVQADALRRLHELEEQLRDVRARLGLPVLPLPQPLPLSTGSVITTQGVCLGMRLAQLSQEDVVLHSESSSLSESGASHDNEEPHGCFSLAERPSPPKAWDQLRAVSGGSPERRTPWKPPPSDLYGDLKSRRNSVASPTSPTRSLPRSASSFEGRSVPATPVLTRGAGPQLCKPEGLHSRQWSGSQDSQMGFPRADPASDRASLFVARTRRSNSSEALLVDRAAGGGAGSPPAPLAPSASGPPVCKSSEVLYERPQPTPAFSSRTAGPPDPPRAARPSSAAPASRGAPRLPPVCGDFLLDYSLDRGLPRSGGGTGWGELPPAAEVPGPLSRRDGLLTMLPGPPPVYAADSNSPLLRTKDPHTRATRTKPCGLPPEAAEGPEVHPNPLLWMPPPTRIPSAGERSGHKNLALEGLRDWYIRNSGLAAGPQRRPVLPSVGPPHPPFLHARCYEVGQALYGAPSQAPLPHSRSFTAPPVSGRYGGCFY

Variants of: B1
Conditions: with phf6_human PHF6, Q8IWS0

Variant	effect of a mutation on the interaction
R361C	with no effect

Variants of: B2
Conditions: with ttyh2_human TTYH2, Q9BSA4

Variant	effect of a mutation on the interaction
G386D	with no effect

Variants of: B3
Conditions: with rel_human REL

Variant	effect of a mutation on the interaction
G386D	with no effect

Variants of: B4
Conditions: with stx2_human STX2, P32856

Variant	effect of a mutation on the interaction
G386D	with no effect

Variants of: B5
Conditions: with rasf8_human RASSF8, Q8NHQ8

Variant	effect of a mutation on the interaction
R361H	with no effect

Variants of: B5
Conditions: with rasf8_human RASSF8, Q8NHQ8
Remark: another data set of the same source

Variant	effect of a mutation on the interaction
R361C	with no effect

Variants of: B5
Conditions: with rasf8_human RASSF8, Q8NHQ8
Remark: another data set of the same source

Variant	effect of a mutation on the interaction
G386D	with no effect

Variants of: B5
Conditions: with rasf8_human RASSF8, Q8NHQ8
Remark: another data set of the same source

Variant	effect of a mutation on the interaction
G386D	increasing interaction strength

Variants of: B6
Conditions: with rasf5_human RASSF5, Q8WWW0

Variant	effect of a mutation on the interaction
R361H	with no effect

Variants of: B6
Conditions: with rasf5_human RASSF5, Q8WWW0
Remark: another data set of the same source

Variant	effect of a mutation on the interaction
G386D	with no effect

Variants of: B7
Conditions: with dlp1_human PDSS2, Q86YH6

Variant	effect of a mutation on the interaction
R361H	with no effect

Variants of: B7
Conditions: with dlp1_human PDSS2, Q86YH6
Remark: another data set of the same source

Variant	effect of a mutation on the interaction
G386D	with no effect

Variants of: B8
Conditions: with sir4_human SIRT4, Q9Y6E7

Variant	effect of a mutation on the interaction
G386D	with no effect

Variants of: B9
Conditions: with cc120_human CCDC120, Q96HB5

Variant	effect of a mutation on the interaction
G386D	with no effect

Variants of: B9
Conditions: with cc120_human CCDC120, Q96HB5
Remark: another data set of the same source

Variant	effect of a mutation on the interaction
G386D	increasing interaction strength

Variants of: B9
Conditions: with cc120_human CCDC120, Q96HB5
Remark: another data set of the same source

Variant	effect of a mutation on the interaction
R361C	with no effect
